The results in this text go back to publication PMC10992996, “Human CRB1 and CRB2 form homo- and heteromeric protein complexes in the retina” (Life Science Alliance, 2024).

The target in this experiment is T1, CRB1-FLAG p.G1103R (human, UniProt P82279 26-1406, p.G1103R).
T1 construct: Crumbs homolog 1, canonical form, human, cDNA NM_202153 as printed, with a patient missense mutation in the last laminin G domain; Made by site-directed mutagenesis of m1; also called CRB1 p.G1103R; CRB1-FLAG MT; source: HEK293T, transfected, in lysate; not shown: Strep-Strep-FLAG, N-terminal, kept
T1 sequence (looked up): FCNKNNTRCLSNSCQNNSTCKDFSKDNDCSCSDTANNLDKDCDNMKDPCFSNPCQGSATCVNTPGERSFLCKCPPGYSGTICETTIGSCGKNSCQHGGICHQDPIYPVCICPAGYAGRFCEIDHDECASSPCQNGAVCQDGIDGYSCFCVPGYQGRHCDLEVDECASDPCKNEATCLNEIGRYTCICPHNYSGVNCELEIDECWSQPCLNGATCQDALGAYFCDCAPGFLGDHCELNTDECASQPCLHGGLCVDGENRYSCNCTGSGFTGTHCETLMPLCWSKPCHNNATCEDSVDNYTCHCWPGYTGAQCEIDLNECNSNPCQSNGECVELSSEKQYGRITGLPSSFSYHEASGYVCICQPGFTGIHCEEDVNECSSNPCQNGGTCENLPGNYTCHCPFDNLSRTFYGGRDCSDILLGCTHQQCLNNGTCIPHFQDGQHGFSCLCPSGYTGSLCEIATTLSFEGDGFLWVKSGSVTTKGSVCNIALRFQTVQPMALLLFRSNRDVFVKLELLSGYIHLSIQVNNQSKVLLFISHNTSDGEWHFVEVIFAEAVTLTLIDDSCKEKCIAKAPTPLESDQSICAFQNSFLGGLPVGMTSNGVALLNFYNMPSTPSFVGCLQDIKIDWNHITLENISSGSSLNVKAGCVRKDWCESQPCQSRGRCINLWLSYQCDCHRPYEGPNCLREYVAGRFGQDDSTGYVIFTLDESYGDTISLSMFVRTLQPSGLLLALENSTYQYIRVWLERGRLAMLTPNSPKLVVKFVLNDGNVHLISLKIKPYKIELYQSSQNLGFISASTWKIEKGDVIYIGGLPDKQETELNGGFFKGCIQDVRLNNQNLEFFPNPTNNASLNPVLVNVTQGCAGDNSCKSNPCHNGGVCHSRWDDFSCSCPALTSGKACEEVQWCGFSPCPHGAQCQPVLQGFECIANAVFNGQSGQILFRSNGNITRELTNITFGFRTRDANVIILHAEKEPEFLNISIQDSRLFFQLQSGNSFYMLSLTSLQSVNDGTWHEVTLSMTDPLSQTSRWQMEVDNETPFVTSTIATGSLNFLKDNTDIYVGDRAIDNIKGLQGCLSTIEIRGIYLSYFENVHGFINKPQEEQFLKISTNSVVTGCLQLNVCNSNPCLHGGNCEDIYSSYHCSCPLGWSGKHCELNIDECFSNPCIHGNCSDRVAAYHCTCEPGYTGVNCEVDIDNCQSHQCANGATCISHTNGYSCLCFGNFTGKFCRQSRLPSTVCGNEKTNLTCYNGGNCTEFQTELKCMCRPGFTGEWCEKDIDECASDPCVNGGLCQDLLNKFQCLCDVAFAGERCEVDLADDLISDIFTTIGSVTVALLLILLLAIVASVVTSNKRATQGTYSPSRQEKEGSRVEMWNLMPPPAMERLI
Kind of experiment: co-IP; HEK293T cells co-transfected pairwise with a FLAG and an HA construct, 48 h; lysis in TBS (30 mM Tris-HCl pH 7.4, 150 mM NaCl) with 0.5% Nonidet P40; FLAG-IP on ANTI-FLAG M2 Affinity Gel 60-90 min at 4°C, elution with FLAG peptide; Western blot with HA and FLAG antibodies; for mutants HA/FLAG signal in eluates relative to WT, three biological replicates. The conditions noted are these: partners not purified. (Immunoblotting shows a protein as a band on a membrane.)

B1: Human canonical CRB2 (Crumbs homolog 2) (natural protein)
chain: not shown
notes: Crumbs homolog 2, human, cDNA NM_173689; Stood as bait (FLAG copy) and as prey (HA copy) in the pairwise co-IP matrix; each copy carries only one of the two tags; The FLAG copy was the bait of the mass spectrometry pull-downs; also called CRB2-FLAG; CRB2-HA; source: HEK293T, transfected, in lysate (co-IP); HEK293T, transfected, FLAG-IP on beads, washed and purified with 0.01% SDS (retina …)
Turning to B1, the “percent reduction of the interaction relative to CRB1 WT” value is about 30%.
